# The supplement of paper PMC11811203
# B1: THAP1; numbered along this chain (parent)
# chain: MVQSCSAYGCKNRYDKDKPVSFHKFPLTRPSLCKEWEAAVRRKNFKPTKYSSICSEHFTPDCFKRECNNKLLKENAVPTIFLCTEPHDKKEDLLEPQEQLPPPPLPPPVSQVDAAIGLLMPPLQTPVNLSVFCDHNYTVEDTMHQRKRIHQLEQQVEKLRKKLKTAQQRCRRQERQLEKLKEVVHFQKEKDDVSERGYVILPNDYFEIVEVPA
# Variants of: B1
# Test: THAP1 transcriptional activity (GFP+/GFP- enrichment relative to wild-type constructs) (ratio to WT); higher = more THAP1 activity (PSMB5 reporter activation)
# Details: with PSMB5 promoter-GFP reporter
# Summary of the method: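 A site-saturation library of human THAP1 (residues 2–213, each changed to all 20 amino acids) was transduced by lentivirus at MOI ~0.3, in duplicate, into THAP1-knockout HEK-293T cells carrying mClover3 knocked in at endogenous PSMB5. After five days, BFP+ cells were sorted into GFP-dim and GFP-bright bins, and variants were counted by Illumina sequencing of genomic DNA amplicons. Activity is the replicate-mean bright/dim read fold change divided by the mean of wild-type synonymous constructs.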
row,Variant,THAP1 transcriptional activity
1,MVQSCSAYGCKNRYDKDKPVSFYKFPLTRPSLCKEWEAAVRRKNFKPTKYSSICSEHFTPDCFKRECNNKLLKENAVPTIFLCTEPHDKKEDLLEPQEQLPPPPLPPPVSQVDAAIGLLMPPLQTPVNLSVFCDHNYTVEDTMHQRKRIHQLEQQVEKLRKKLKTAQQRCRRQERQLEKLKEVVHFQKEKDDVSERGYVILPNDYFEIVEVPA [H23Y],0.179
2,MVQSCSAYGCANRYDKDKPVSFHKFPLTRPSLCKEWEAAVRRKNFKPTKYSSICSEHFTPDCFKRECNNKLLKENAVPTIFLCTEPHDKKEDLLEPQEQLPPPPLPPPVSQVDAAIGLLMPPLQTPVNLSVFCDHNYTVEDTMHQRKRIHQLEQQVEKLRKKLKTAQQRCRRQERQLEKLKEVVHFQKEKDDVSERGYVILPNDYFEIVEVPA [K11A],0.284
3,MVQSCSAYGCKNRYDKDKPVSFHKFPLTRPSLCKEWEAAVRRKNFKPTKYSSICSEHFTPDCFKRECNNKLLKENAVPTIFLCTEPHDKKEDLLEPQEQLPPPPLPPPVSQVDAAIGLLMPPLQTPVNLSVFCDHNYTVEDTMHQRKRIHQLEQQVEKLRKKLKTASQRCRRQERQLEKLKEVVHFQKEKDDVSERGYVILPNDYFEIVEVPA [Q167S],0.649
4,MVQSCSAYGCKNRYDKDKPVSFHKFPLTRPSLCKEWEAAVRRKNFKPTKYSSICSEHFTPDCFKRECNNKLLKENAVPTIFACTEPHDKKEDLLEPQEQLPPPPLPPPVSQVDAAIGLLMPPLQTPVNLSVFCDHNYTVEDTMHQRKRIHQLEQQVEKLRKKLKTAQQRCRRQERQLEKLKEVVHFQKEKDDVSERGYVILPNDYFEIVEVPA [L82A],1.84
5,MVQSCSAYGCKNRYDKDKPVSFHKFPLTRPSLCKEWEAAVRRKNFKPTKYSSICSEHFTPDCFKRECNNKLLKENAVPTIFLCTEPHDKKEDLLEPQEQLPPPPLPPPVSQVDAAIGLLMPPLQTPVNLSVFCDHNYTVEDTMHQRKRIHQLEQQVEKLRKKLKEAQQRCRRQERQLEKLKEVVHFQKEKDDVSERGYVILPNDYFEIVEVPA [T165E],0.6
6,MVQSCSAYGCKNRYDKDKPVSFHKFPLTRPSLCKEWEAAVRRKNFKPTKYSSICSEHFTPDCFKRECNNKLLKENAVPTIFLCTEPHDKKEDLLEPQEQLPPPPLPPPVSQVDAAIGLLMPPLQTPVNLSVFCDHNYTVEDTMHQRKRIHQLEQQVEKLRKKLKTAQQRCRRQERQLEKLKEVVHFQKEIDDVSERGYVILPNDYFEIVEVPA [K190I],1.48
7,MVRSCSAYGCKNRYDKDKPVSFHKFPLTRPSLCKEWEAAVRRKNFKPTKYSSICSEHFTPDCFKRECNNKLLKENAVPTIFLCTEPHDKKEDLLEPQEQLPPPPLPPPVSQVDAAIGLLMPPLQTPVNLSVFCDHNYTVEDTMHQRKRIHQLEQQVEKLRKKLKTAQQRCRRQERQLEKLKEVVHFQKEKDDVSERGYVILPNDYFEIVEVPA [Q3R],0.187
8,MVQSCSAYGCKNRYDKDIPVSFHKFPLTRPSLCKEWEAAVRRKNFKPTKYSSICSEHFTPDCFKRECNNKLLKENAVPTIFLCTEPHDKKEDLLEPQEQLPPPPLPPPVSQVDAAIGLLMPPLQTPVNLSVFCDHNYTVEDTMHQRKRIHQLEQQVEKLRKKLKTAQQRCRRQERQLEKLKEVVHFQKEKDDVSERGYVILPNDYFEIVEVPA [K18I],0.444
9,MVQSCSAYGCKNRYDKDKPVSFHKFPLTRPSLCKEWEAAVRRKNFKPTKYSSICSEHFTPDCFKRECNNKLLKENAVPTIFLCTEPHDKKEDLLEPQEQLPPPPLPPPVSQVDAAIGLLMPPLQTPVNLSVFCDHNYTVEDTMHQRKRIHQLEQQVEKLMKKLKTAQQRCRRQERQLEKLKEVVHFQKEKDDVSERGYVILPNDYFEIVEVPA [R160M],0.278
10,MVQSCSAYGCKNRYDKDKPVSFHKFPLTRPSLCKEWEAAVRRKNFKPTKYSSICSEHFTPDCFKRECNNKLLKENAVPTIFLCTEPHDKKEDLLEPQEQLPPPPLPPPVSQVDAAIGLLMPPLQTPVNLSVFCDHNYTVEDTMHQRKRIHQLEQQVEKLRKKLKTAQQRCRRQERQLEKLKEDVHFQKEKDDVSERGYVILPNDYFEIVEVPA [V183D],0.954
11,MVQSCSAYGCKNRYDKDKPVSFHKFPLTRPSLCKEWEAAVRRKNFKPTKYSSICSEHFTPDCFKRECNNKLLKENAVPTIFLCTEPHDKKEDLLEPQEQLPPPPLPPPVSQVDAAIGLLMPPLQTPVNLSVFCDHNYTVEDTMHQRKRIHQLEQQVEKLRKKLKTAQQRCRRLERQLEKLKEVVHFQKEKDDVSERGYVILPNDYFEIVEVPA [Q173L],0.611
12,MVQSCSAYGCKNRYDKDKPVSFHKVPLTRPSLCKEWEAAVRRKNFKPTKYSSICSEHFTPDCFKRECNNKLLKENAVPTIFLCTEPHDKKEDLLEPQEQLPPPPLPPPVSQVDAAIGLLMPPLQTPVNLSVFCDHNYTVEDTMHQRKRIHQLEQQVEKLRKKLKTAQQRCRRQERQLEKLKEVVHFQKEKDDVSERGYVILPNDYFEIVEVPA [F25V],0.0907
13,MVQSCSAYGCKNRYDKDKPVSFHKAPLTRPSLCKEWEAAVRRKNFKPTKYSSICSEHFTPDCFKRECNNKLLKENAVPTIFLCTEPHDKKEDLLEPQEQLPPPPLPPPVSQVDAAIGLLMPPLQTPVNLSVFCDHNYTVEDTMHQRKRIHQLEQQVEKLRKKLKTAQQRCRRQERQLEKLKEVVHFQKEKDDVSERGYVILPNDYFEIVEVPA [F25A],0.123
14,MVQSCSAYGCKNRYDKDKPVSFHKFPLTRPSLCKEWEAAVRRKNFKPTKYSSICSEHFTPDCFKRECNNKLLKENAVPTIFLCTEPHDKKEDLLEPQEQLPPPPLPPPVSQVDAAIGLLMPALQTPVNLSVFCDHNYTVEDTMHQRKRIHQLEQQVEKLRKKLKTAQQRCRRQERQLEKLKEVVHFQKEKDDVSERGYVILPNDYFEIVEVPA [P122A],0.914
15,MVQSCSAYGCKNRYDKDKPVSFHKFPLTRPSLCKEWEAAVRRKNFKPTKYSSICSEHFTPDCFKRECNNKLLKENAVPTIVLCTEPHDKKEDLLEPQEQLPPPPLPPPVSQVDAAIGLLMPPLQTPVNLSVFCDHNYTVEDTMHQRKRIHQLEQQVEKLRKKLKTAQQRCRRQERQLEKLKEVVHFQKEKDDVSERGYVILPNDYFEIVEVPA [F81V],0.312
16,MVQSCSAYGCKNRYDKDKPVSFHKFPLTRPSLCKEWEAAVRRKNFKPTKYSSICSEHFTPDCFKRECNNKLLKENAVPTIFLCTEPHDKKEDLLEPQEQLPPPPLPPPVSKVDAAIGLLMPPLQTPVNLSVFCDHNYTVEDTMHQRKRIHQLEQQVEKLRKKLKTAQQRCRRQERQLEKLKEVVHFQKEKDDVSERGYVILPNDYFEIVEVPA [Q111K],1.01
17,MVQSCSAYGCKNRYDKDKPVSFHKFPLTRPSLCKEWEAAVRRKNFKPTKYSSICSEHFTPDCFKRECNNKLLKENAVPTIFLCTFPHDKKEDLLEPQEQLPPPPLPPPVSQVDAAIGLLMPPLQTPVNLSVFCDHNYTVEDTMHQRKRIHQLEQQVEKLRKKLKTAQQRCRRQERQLEKLKEVVHFQKEKDDVSERGYVILPNDYFEIVEVPA [E85F],0.389
18,MVQSCSAYGCKNRYDKDKPVSFHKFPLTRPSLCKEWEAAVRRKNFKPTKYSSICSEHFTPDCFKRECNNKLLKENAVPTIFLCTEPHDKKEDLLEPQEQLPPPPLPPPVSQVDAAIGLLMPPLQTPVNLSVFCDHNYTVEDTMHQRKRIHQLEQQVEKLRKKLSTAQQRCRRQERQLEKLKEVVHFQKEKDDVSERGYVILPNDYFEIVEVPA [K164S],0.326
19,MVQSCSAYGCKNRYDKDKPVSFHKFPLTRPSLCKEWEAAVRRKNFKPTKYASICSEHFTPDCFKRECNNKLLKENAVPTIFLCTEPHDKKEDLLEPQEQLPPPPLPPPVSQVDAAIGLLMPPLQTPVNLSVFCDHNYTVEDTMHQRKRIHQLEQQVEKLRKKLKTAQQRCRRQERQLEKLKEVVHFQKEKDDVSERGYVILPNDYFEIVEVPA [S51A],0.32
20,MVQSCSAYGCKNRYDKDKPVSFHKFPLTRPSLCKEWEAAVRRKNFKPTKYSSICSEHFTPDCFKRECNNKLLKENAVPTIFLCTEPHDKKEDLLEPQEQLPPPPLPPPVSQVDAAIGLLMPPLQTPVNLSVFCDHNYTVEDTMHQRKRIHQLEQQVEKLRKKLKTAQQRCRRQERQLEKLKEVVHFQKEKDDVSERGVVILPNDYFEIVEVPA [Y198V],1.01
21,MVQSCSAYGCKNRYDKDKPVSFHKFPLTRPSLCKEWEAAVRRKNFKPTKYSSICSEHFTPDCFKRECNNKLLKENAVPTIFLCTEPHDKKEDLLEPQEQLPPPPLPPPVSQVDAAIGLLMPPLQTPVNLSVFCDHNYTVEDTMHQRKRIHQLEQQVEKLRKKLKTAQQRCRRQERQLEKLKEVVHFQKEKDDVSERGYVILWNDYFEIVEVPA [P202W],0.577
22,MVQSCSAYGCKNRYDKDKPVSFHKFPLTRPSLCKEWEAAVRRKNFKPTKYSSICSEHFTPDCFKRECNNKLLKENAVPTIFLCTEPHDKKEDLLEPQEQLPPPPLPPPVSQVDAAIGLLMPPLQTPVNLSVFCDHNYTVEDTMHQRKRIHQLEQQVEKLRKKLKTAQQRCRRQERQLEKLKEVVHFQKEKDDVSERGYVILDNDYFEIVEVPA [P202D],0.802
23,MVQSCSAYGCKNRYDKDKPVSFHKFPLTRPSLCKEWEAAVRRKNFKPTKYSSICSEHFTPDCFKRECNNKLLKENAVPTIFLCTEPHDKKEDLLEPQEQLPPPPLPPPVSQVDAAIGLLMPPLQTPVNLSVFCDHNYTVEDTMHQRKRIHQLEQQVEKLRKKLKTAQQRCRRQERQLEKLKEVVHFQKEKDDVSERGYVILSNDYFEIVEVPA [P202S],0.869
24,MVQSCSAYGCKNRYDKDKPVSFHKFPLTRPSLCKEWEAAVRRKNFKPTKYSSICSEHFTPDCFKRECNNKLLKENAVPTIFLCTEPHDKKEDLLEPQEQLPPPPLPPPVSQVDAALGLLMPPLQTPVNLSVFCDHNYTVEDTMHQRKRIHQLEQQVEKLRKKLKTAQQRCRRQERQLEKLKEVVHFQKEKDDVSERGYVILPNDYFEIVEVPA [I116L],0.739
25,MVQSCSAYGCKNRYDKDKPVSFHKFPLTYPSLCKEWEAAVRRKNFKPTKYSSICSEHFTPDCFKRECNNKLLKENAVPTIFLCTEPHDKKEDLLEPQEQLPPPPLPPPVSQVDAAIGLLMPPLQTPVNLSVFCDHNYTVEDTMHQRKRIHQLEQQVEKLRKKLKTAQQRCRRQERQLEKLKEVVHFQKEKDDVSERGYVILPNDYFEIVEVPA [R29Y],0.118
26,MVQSCSAYGCKNRYDKDKPVSFHKFPLTRPSLCKEWKAAVRRKNFKPTKYSSICSEHFTPDCFKRECNNKLLKENAVPTIFLCTEPHDKKEDLLEPQEQLPPPPLPPPVSQVDAAIGLLMPPLQTPVNLSVFCDHNYTVEDTMHQRKRIHQLEQQVEKLRKKLKTAQQRCRRQERQLEKLKEVVHFQKEKDDVSERGYVILPNDYFEIVEVPA [E37K],0.292
27,MVQSCSAYGCKNRYDKDKPVSFHKFPLTRPSLCKEWEAAVRRKNFKPTKYSSICSEHFTPDCFKRECNNKLLKENAVPTIFLCTEPHDKKEDLLYPQEQLPPPPLPPPVSQVDAAIGLLMPPLQTPVNLSVFCDHNYTVEDTMHQRKRIHQLEQQVEKLRKKLKTAQQRCRRQERQLEKLKEVVHFQKEKDDVSERGYVILPNDYFEIVEVPA [E95Y],1.04
28,MVQSCSAYGCKNRYDKDKPVSFHKFPLTRPSLCKEWEAAVRRKNFKPTKYSSICSEHFTPDCFKRECNNKLLKENAVPTIFLCTEPHDKKEDLLEPQEQLPPPPLPPPVSQVDAAIGLLMPPLQTPVNLSVFCDHNYTVEDTMHQRKRIHQLEQQVEKLRGKLKTAQQRCRRQERQLEKLKEVVHFQKEKDDVSERGYVILPNDYFEIVEVPA [K161G],0.289
